Measured values taken from patent US20230340439, “SYNTHETIC MINIATURE CRISPR-CAS (CASMINI) SYSTEM FOR EUKARYOTIC GENOME ENGINEERING” (The Board of Trustees of the Leland Stanford Junior …, published 2023).

Assays:
[1] = target: T1, dCas14-VPR (dUn1Cas12f1-VPR) (UniProt A0A482D308 SEQ:1-529); test: cell_activity; GFP activation, 3% GFP+ cells; PAM TTTR; settings: chain copies: 2
T1 chain: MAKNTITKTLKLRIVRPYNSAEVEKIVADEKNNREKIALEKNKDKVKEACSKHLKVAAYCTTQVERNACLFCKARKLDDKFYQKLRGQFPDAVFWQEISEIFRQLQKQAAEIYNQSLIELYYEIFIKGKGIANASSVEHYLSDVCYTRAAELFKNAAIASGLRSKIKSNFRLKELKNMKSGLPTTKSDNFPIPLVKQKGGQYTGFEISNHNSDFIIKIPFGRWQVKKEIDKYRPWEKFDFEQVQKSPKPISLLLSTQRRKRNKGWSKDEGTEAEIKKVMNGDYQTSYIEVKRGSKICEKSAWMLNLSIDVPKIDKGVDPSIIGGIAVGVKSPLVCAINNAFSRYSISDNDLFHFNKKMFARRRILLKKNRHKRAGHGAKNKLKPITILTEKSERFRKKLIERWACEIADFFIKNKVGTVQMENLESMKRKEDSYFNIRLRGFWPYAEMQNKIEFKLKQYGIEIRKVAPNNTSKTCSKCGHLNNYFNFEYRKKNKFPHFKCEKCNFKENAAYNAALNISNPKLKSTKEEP
Experimental: (§1) Using a doxycycline (Dox)-inducible TRE3G-EGFP HEK293T reporter cell line and a sgRNA targeting the promoter, activation efficiency of dCas14-VPR was measured. Wild-type HEK293T cells (ATCC) and the HEK293T TRE3G-GFP reporter line stably encoding EGFP under a Tet-On promoter (pTRE3G) (Y. Gao et al., Genome Res. 22, (2012): 1760-74) were cultured in DMEM with high glucose, sodium pyruvate and GlutaMAX (Thermo Fisher), additionally supplemented with 10% FBS (Sigma). Cells were grown at 37° C. and 5% CO₂ and maintained at confluency below 80%. All transfections were performed with TransIT-LT1 transfection reagent (Mirus) at a ratio of 3 µL reagent per µg of plasmid. Cells were plated 1 day before at 1×10⁵ cells/mL. For this and other GFP activation assays described in these Examples, 500 ng of dCas constructs and 250 ng sgRNA or crRNA plasmids were transfected to HEK293T TRE3G-GFP cells in 24-well plates. Transfected cells were analyzed 2 days post-transfection for GFP activation. Here, no reporter activation was observed (FIG. 3), implying the natural Cas14 system fails to function in the human genome context.

[2] = target: T2, dCasMINI-V3-VPR (D143R/T147R/K330R) (UniProt A0A482D308 SEQ:1-529); test: cell_activity; GFP activation; PAM TTTR
T2 chain: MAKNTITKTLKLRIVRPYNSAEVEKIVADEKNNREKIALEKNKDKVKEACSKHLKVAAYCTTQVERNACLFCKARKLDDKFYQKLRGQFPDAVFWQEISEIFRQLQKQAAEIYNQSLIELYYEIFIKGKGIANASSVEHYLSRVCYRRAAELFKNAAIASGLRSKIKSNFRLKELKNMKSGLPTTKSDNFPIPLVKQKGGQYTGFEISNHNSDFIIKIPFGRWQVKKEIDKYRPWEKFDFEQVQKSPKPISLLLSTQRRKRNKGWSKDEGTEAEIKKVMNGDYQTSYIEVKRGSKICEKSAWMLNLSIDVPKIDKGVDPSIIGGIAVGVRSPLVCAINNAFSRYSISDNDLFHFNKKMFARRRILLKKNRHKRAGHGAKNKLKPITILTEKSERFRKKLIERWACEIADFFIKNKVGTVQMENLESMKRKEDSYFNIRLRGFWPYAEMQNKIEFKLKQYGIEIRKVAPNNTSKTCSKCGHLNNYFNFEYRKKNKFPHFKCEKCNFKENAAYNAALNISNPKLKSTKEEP
Experimental: as §1

[3] = target: T3, dCasMINI-V2-VPR (D143R/T147R) (UniProt A0A482D308 SEQ:1-529); test: cell_activity; GFP activation; PAM TTTR; settings: chain copies: 2
T3 chain: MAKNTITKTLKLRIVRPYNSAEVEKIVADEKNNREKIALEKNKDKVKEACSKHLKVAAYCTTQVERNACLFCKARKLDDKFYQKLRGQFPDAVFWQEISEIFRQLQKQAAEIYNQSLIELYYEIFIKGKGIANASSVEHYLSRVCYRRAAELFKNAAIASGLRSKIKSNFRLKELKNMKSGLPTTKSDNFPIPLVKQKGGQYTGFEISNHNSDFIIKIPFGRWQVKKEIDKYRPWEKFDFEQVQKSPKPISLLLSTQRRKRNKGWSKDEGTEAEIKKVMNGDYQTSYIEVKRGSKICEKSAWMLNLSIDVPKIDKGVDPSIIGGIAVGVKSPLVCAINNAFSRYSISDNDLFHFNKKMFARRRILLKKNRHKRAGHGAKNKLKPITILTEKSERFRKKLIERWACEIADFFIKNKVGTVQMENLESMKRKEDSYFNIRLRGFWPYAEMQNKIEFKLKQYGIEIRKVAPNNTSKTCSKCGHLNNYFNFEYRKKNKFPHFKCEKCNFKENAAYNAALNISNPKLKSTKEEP
Experimental: as §1

[4] = target: T4, dCasMINI-V1-VPR (D143R) (UniProt A0A482D308 SEQ:1-529); test: cell_activity; GFP activation; PAM TTTR; settings: chain copies: 2
T4 chain: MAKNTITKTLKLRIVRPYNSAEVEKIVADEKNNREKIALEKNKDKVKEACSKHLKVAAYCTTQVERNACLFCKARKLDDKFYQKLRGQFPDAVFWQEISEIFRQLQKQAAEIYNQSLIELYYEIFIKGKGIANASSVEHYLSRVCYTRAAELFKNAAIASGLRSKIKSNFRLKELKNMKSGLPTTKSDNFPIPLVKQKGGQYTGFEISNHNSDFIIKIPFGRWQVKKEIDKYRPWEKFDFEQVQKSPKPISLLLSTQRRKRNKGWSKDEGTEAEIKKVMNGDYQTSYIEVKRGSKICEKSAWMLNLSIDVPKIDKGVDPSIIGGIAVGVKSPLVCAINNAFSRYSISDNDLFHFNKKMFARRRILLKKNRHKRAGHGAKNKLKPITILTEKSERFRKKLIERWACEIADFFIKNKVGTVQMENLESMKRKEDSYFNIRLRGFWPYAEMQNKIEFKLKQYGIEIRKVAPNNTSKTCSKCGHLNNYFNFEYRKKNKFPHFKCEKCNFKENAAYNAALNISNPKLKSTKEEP
Experimental: as §1

[5] = target: T5, dCasMINI-V4-VPR (D143R/T147R/K330R/E528R) (UniProt A0A482D308 SEQ:1-529, D326A,D510A); test: cell_activity; GFP activation; 1.15-fold over V3 in screen; PAM TTTR; settings: tags: N-terminal SV40 NLS, C-terminal c-Myc NLS, mCherry
T5 sequence: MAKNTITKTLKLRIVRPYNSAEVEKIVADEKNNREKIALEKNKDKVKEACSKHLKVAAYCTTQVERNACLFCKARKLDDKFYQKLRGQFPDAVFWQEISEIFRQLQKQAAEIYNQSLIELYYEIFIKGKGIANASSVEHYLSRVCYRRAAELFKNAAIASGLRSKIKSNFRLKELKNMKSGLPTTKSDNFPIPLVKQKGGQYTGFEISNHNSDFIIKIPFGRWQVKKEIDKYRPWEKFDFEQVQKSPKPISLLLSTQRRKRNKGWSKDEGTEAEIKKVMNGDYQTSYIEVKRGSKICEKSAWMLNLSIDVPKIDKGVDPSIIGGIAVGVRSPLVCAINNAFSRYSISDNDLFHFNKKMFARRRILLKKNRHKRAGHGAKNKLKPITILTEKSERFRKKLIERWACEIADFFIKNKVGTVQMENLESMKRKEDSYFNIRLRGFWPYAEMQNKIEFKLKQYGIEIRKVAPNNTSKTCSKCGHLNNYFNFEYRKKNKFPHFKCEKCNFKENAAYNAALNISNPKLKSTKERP

B1: sgRNA Design 2 (stem-loop truncation) targeting TRE3G ; TRE3G promoter target (ssRNA ; dsDNA)
RNA: GGGCUUCACUGAUAAAGUGGAGAACCGCUUCACCAAAAGCUGUCCCUUAGGGGAUUAGAACUUGAGUGAAGGUGGGCUGCUUGCAUCAGCCUAAUGUCGAGAAGUGCUUUCUUCGGAAAGUAACCCUCGAAACAAAUUCAUUUGAAUGAAGGAAUGCAACCUCCCUAUCAGUGAUAGAGAACG
DNA 1: TTTACTCCCTATCAGTGATAGAGAACGTAT
DNA 2: ATACGTTCTCTATCACTGATAGGGAGTAAA
modifications: [-]
In the case of B1, the activity [1] is reported as 3.6 fold over non-targeting, the activity [2] is reported as 1.26 fold over D143R/T147R and the activity [3] is reported as 1.55 fold over best single variant. For the same binder, the activity [4] was over 24 fold over dCas14-VPR and the activity [5] was 244 fold activation.
